In publication PMC8872386 (Chemical Science, 2021):
Ends that are not written are not given here.

Columns and labels:
Test in all cases: fluorescence polarisation
[1] = molecular target: Sgo1 peptide (residues 446–466) bearing fluorescein (UniProt Q5FBB7)
[2] = molecular target: chemically synthesized full-length heterochromatin protein 1α without PTMs (21) (UniProt P45973 1-191)
[3] = molecular target: recombinant HP1α (UniProt P45973 1-191)
recombinant HP1α, sequence (P45973 whole entry): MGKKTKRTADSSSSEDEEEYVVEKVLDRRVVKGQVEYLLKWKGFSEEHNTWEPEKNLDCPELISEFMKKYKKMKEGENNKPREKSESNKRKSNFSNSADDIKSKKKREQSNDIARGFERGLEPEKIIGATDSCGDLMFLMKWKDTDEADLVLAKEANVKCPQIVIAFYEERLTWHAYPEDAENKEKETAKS

chemically synthesized full-length heterochromatin protein 1α without PTMs (21), sequence (P45973 whole entry): as above

Kd [1] | Kd [2] | Kd [3] | Molecule
1870 nM |  |  | chemically synthesized HP1α ubiquitinated at K154 (21f) (from UniProt P45973 1-191; P0CG48 1-76)
 | 470 nM | 510 nM | NVSLYPVVKIRRLSLSPKKNK (peptide, UniProt Q5FBB7 446-466, looked up, also: fluorescein, position not given here) [Sgo1 peptide (residues 446–466) bearing fluorescein]
